Experimental data published in patent US20240018502A1.

Biological target: plasma purified human complement protein C3 (human) (UniProt P01024)
Assay: cell-based or functional assay

plasma purified human complement protein C3 (human), sequence (P01024 23-667, chain 1 of 2): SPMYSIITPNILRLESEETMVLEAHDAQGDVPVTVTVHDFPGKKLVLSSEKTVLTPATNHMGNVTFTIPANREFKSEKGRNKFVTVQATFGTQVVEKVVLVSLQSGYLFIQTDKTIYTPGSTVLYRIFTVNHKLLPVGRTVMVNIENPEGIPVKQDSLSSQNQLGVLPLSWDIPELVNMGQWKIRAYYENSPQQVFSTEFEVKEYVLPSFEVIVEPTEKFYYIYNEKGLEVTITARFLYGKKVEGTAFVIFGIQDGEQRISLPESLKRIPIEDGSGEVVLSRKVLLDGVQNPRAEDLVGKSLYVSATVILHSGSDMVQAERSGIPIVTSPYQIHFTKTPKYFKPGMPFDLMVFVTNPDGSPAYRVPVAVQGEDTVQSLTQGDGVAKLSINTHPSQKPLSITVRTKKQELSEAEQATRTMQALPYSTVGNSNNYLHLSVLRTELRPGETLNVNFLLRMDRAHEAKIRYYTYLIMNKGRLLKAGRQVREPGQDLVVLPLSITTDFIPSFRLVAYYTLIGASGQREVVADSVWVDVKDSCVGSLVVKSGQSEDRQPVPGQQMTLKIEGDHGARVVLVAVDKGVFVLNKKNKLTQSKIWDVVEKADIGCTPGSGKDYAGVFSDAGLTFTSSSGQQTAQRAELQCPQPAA
plasma purified human complement protein C3 (human), sequence (P01024 672-1663, chain 2 of 2): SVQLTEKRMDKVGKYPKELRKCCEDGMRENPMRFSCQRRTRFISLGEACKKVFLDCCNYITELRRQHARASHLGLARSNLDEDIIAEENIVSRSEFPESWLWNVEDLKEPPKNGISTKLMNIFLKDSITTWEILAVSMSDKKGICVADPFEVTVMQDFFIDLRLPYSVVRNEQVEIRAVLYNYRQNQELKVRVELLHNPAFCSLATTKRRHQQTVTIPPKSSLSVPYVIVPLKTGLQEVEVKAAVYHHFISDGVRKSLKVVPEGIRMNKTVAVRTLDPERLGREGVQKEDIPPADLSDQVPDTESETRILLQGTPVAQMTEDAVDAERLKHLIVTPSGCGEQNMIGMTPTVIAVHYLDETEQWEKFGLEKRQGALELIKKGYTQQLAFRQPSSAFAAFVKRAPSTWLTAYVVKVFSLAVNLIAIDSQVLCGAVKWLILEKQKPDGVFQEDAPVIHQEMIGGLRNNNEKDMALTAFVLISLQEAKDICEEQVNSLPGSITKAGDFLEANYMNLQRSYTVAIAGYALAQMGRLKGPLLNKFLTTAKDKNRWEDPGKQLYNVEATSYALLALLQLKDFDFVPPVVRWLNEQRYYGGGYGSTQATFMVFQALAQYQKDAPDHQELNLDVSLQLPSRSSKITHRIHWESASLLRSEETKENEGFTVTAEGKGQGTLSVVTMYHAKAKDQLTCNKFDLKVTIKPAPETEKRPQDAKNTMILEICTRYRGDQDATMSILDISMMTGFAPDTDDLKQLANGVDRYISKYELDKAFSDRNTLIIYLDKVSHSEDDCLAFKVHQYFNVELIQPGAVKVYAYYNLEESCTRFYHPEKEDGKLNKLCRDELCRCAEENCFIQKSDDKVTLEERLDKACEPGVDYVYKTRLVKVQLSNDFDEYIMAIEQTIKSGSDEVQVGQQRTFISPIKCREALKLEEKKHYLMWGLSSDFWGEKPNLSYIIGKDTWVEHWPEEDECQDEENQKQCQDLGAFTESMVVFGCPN

| Binder | EC50 hC3 cleavage [nM] | EC50 of hC3 cleavage [nM] |
| --- | --- | --- |
| MTSP-1 protease domain Q38H/I41S/D96K/ins97aS/C122S/G151P/Q192S (enzyme) VVGGTDADEGEWPWQVSLHALGHGHSCGASLISPNWLVSAAHCYIDDRGFRYSDPTQWTAFLGLHDQSQRSAPGVQERRLKRIISHPFFNKFSTFDYDIALLELEKPAEYSSMVRPISLPDASHVFPAGKAIWVTGWGHTQYGGTPALILQKGEIRVINQTTCENLLPQQITPRMMCVGFLSGGVDSCSGDSGGPLSSVEADGRIFQAGVVSWGDGCAQRNKPGVYTRLPLFRDWIKENTGV | 25.6 | – |
| MTSP-1 protease domain I41S/Y59F/F97S/ins97aV/S116Y/C122S/Q192G/D217V (enzyme) VVGGTDADEGEWPWQVSLHALGQGHSCGASLISPNWLVSAAHCFIDDRGFRYSDPTQWTAFLGLHDQSQRSAPGVQERRLKRIISHPFFNDSVTFDYDIALLELEKPAEYSYMVRPISLPDASHVFPAGKAIWVTGWGHTQYGGTGALILQKGEIRVINQTTCENLLPQQITPRMMCVGFLSGGVDSCGGDSGGPLSSVEADGRIFQAGVVSWGVGCAQRNKPGVYTRLPLFRDWIKENTGV | 8.22 | – |
| MTSP-1 protease domain I41S/Y59F/ins97aV/C122S/Q192G (enzyme) VVGGTDADEGEWPWQVSLHALGQGHSCGASLISPNWLVSAAHCFIDDRGFRYSDPTQWTAFLGLHDQSQRSAPGVQERRLKRIISHPFFNDFVTFDYDIALLELEKPAEYSSMVRPISLPDASHVFPAGKAIWVTGWGHTQYGGTGALILQKGEIRVINQTTCENLLPQQITPRMMCVGFLSGGVDSCGGDSGGPLSSVEADGRIFQAGVVSWGDGCAQRNKPGVYTRLPLFRDWIKENTGV | 25.6 | – |
| MTSP-1 protease domain I41S/S90P/ins97aV/C122S/Y146E/Q192N/D217V (enzyme) VVGGTDADEGEWPWQVSLHALGQGHSCGASLISPNWLVSAAHCYIDDRGFRYSDPTQWTAFLGLHDQSQRSAPGVQERRLKRIIPHPFFNDFVTFDYDIALLELEKPAEYSSMVRPISLPDASHVFPAGKAIWVTGWGHTQEGGTGALILQKGEIRVINQTTCENLLPQQITPRMMCVGFLSGGVDSCNGDSGGPLSSVEADGRIFQAGVVSWGVGCAQRNKPGVYTRLPLFRDWIKENTGV | 6.47 | – |
| MTSP-1 Q38H/I41S/D60bT/F60eS/Y60gW/D96K/F97G/ins97aV/F99L/C122S/G151H/Q175L/Q192D (enzyme) VVGGTDADEGEWPWQVSLHALGHGHSCGASLISPNWLVSAAHCYIDTRGSRWSDPTQWTAFLGLHDQSQRSAPGVQERRLKRIISHPFFNKGVTLDYDIALLELEKPAEYSSMVRPISLPDASHVFPAGKAIWVTGWGHTQYGGTHALILQKGEIRVINQTTCENLLPQLITPRMMCVGFLSGGVDSCDGDSGGPLSSVEADGRIFQAGVVSWGDGCAQRNKPGVYTRLPLFRDWIKENTGV | – | 9.83 |
| MTSP-1 protease domain I41S/S90T/ins97aV/C122S/Q192V/D217V (enzyme) VVGGTDADEGEWPWQVSLHALGQGHSCGASLISPNWLVSAAHCYIDDRGFRYSDPTQWTAFLGLHDQSQRSAPGVQERRLKRIITHPFFNDFVTFDYDIALLELEKPAEYSSMVRPISLPDASHVFPAGKAIWVTGWGHTQYGGTGALILQKGEIRVINQTTCENLLPQQITPRMMCVGFLSGGVDSCVGDSGGPLSSVEADGRIFQAGVVSWGVGCAQRNKPGVYTRLPLFRDWIKENTGV | 10.5 | – |
| MTSP-1 protease domain I41S/F93L/ins97aV/C122S/Q192V/D217V (enzyme) VVGGTDADEGEWPWQVSLHALGQGHSCGASLISPNWLVSAAHCYIDDRGFRYSDPTQWTAFLGLHDQSQRSAPGVQERRLKRIISHPLFNDFVTFDYDIALLELEKPAEYSSMVRPISLPDASHVFPAGKAIWVTGWGHTQYGGTGALILQKGEIRVINQTTCENLLPQQITPRMMCVGFLSGGVDSCVGDSGGPLSSVEADGRIFQAGVVSWGVGCAQRNKPGVYTRLPLFRDWIKENTGV | 9.82 | – |
| MTSP-1 protease domain I41S/ins97aV/C122S/Q192G/Q209L (enzyme) VVGGTDADEGEWPWQVSLHALGQGHSCGASLISPNWLVSAAHCYIDDRGFRYSDPTQWTAFLGLHDQSQRSAPGVQERRLKRIISHPFFNDFVTFDYDIALLELEKPAEYSSMVRPISLPDASHVFPAGKAIWVTGWGHTQYGGTGALILQKGEIRVINQTTCENLLPQQITPRMMCVGFLSGGVDSCGGDSGGPLSSVEADGRIFLAGVVSWGDGCAQRNKPGVYTRLPLFRDWIKENTGV | 33.4 | – |
| MTSP-1 protease domain A35V/I41S/Y59F/C122S/Q192D/D217V (enzyme) VVGGTDADEGEWPWQVSLHVLGQGHSCGASLISPNWLVSAAHCFIDDRGFRYSDPTQWTAFLGLHDQSQRSAPGVQERRLKRIISHPFFNDFTFDYDIALLELEKPAEYSSMVRPISLPDASHVFPAGKAIWVTGWGHTQYGGTGALILQKGEIRVINQTTCENLLPQQITPRMMCVGFLSGGVDSCDGDSGGPLSSVEADGRIFQAGVVSWGVGCAQRNKPGVYTRLPLFRDWIKENTGV | 39.8 | – |

Results, then the binder that gave them:

| EC50 hC3 cleavage [nM] | EC50 of hC3 cleavage [nM] | Binder |
| --- | --- | --- |
| 13.4 | – | MTSP-1 protease domain I41S/S90T/ins97aV/C122S/Q192N/D217V (enzyme) VVGGTDADEGEWPWQVSLHALGQGHSCGASLISPNWLVSAAHCYIDDRGFRYSDPTQWTAFLGLHDQSQRSAPGVQERRLKRIITHPFFNDFVTFDYDIALLELEKPAEYSSMVRPISLPDASHVFPAGKAIWVTGWGHTQYGGTGALILQKGEIRVINQTTCENLLPQQITPRMMCVGFLSGGVDSCNGDSGGPLSSVEADGRIFQAGVVSWGVGCAQRNKPGVYTRLPLFRDWIKENTGV |
| 8.35 | – | MTSP-1 protease domain I41S/Y59F/ins97aV/C122S/G187D/Q192V/D217V (enzyme) VVGGTDADEGEWPWQVSLHALGQGHSCGASLISPNWLVSAAHCFIDDRGFRYSDPTQWTAFLGLHDQSQRSAPGVQERRLKRIISHPFFNDFVTFDYDIALLELEKPAEYSSMVRPISLPDASHVFPAGKAIWVTGWGHTQYGGTGALILQKGEIRVINQTTCENLLPQQITPRMMCVGFLSGDVDSCVGDSGGPLSSVEADGRIFQAGVVSWGVGCAQRNKPGVYTRLPLFRDWIKENTGV |
| 34.6 | – | MTSP-1 protease domain Q38H/I41S/D96G/ins97aG/C122S/G151N/Q192A (enzyme) VVGGTDADEGEWPWQVSLHALGHGHSCGASLISPNWLVSAAHCYIDDRGFRYSDPTQWTAFLGLHDQSQRSAPGVQERRLKRIISHPFFNGFGTFDYDIALLELEKPAEYSSMVRPISLPDASHVFPAGKAIWVTGWGHTQYGGTNALILQKGEIRVINQTTCENLLPQQITPRMMCVGFLSGGVDSCAGDSGGPLSSVEADGRIFQAGVVSWGDGCAQRNKPGVYTRLPLFRDWIKENTGV |
| 44.4 | – | MTSP-1 protease domain I41S/D96E/ins97aG/C122S/G151Q/Q192A (enzyme) VVGGTDADEGEWPWQVSLHALGQGHSCGASLISPNWLVSAAHCYIDDRGFRYSDPTQWTAFLGLHDQSQRSAPGVQERRLKRIISHPFFNEFGTFDYDIALLELEKPAEYSSMVRPISLPDASHVFPAGKAIWVTGWGHTQYGGTQALILQKGEIRVINQTTCENLLPQQITPRMMCVGFLSGGVDSCAGDSGGPLSSVEADGRIFQAGVVSWGDGCAQRNKPGVYTRLPLFRDWIKENTGV |
| 26.8 | – | MTSP-1 protease domain Q38H/I41S/D96K/ins97aD/C122S/G151N/Q192S (enzyme) VVGGTDADEGEWPWQVSLHALGHGHSCGASLISPNWLVSAAHCYIDDRGFRYSDPTQWTAFLGLHDQSQRSAPGVQERRLKRIISHPFFNKFDTFDYDIALLELEKPAEYSSMVRPISLPDASHVFPAGKAIWVTGWGHTQYGGTNALILQKGEIRVINQTTCENLLPQQITPRMMCVGFLSGGVDSCSGDSGGPLSSVEADGRIFQAGVVSWGDGCAQRNKPGVYTRLPLFRDWIKENTGV |
| – | 7.88 | MTSP-1 Q38H/I41S/D60bT/F60eS/Y60gW/D96K/F97G/T98P/F99L/C122S/G151H/Q175L/Q192D (enzyme) VVGGTDADEGEWPWQVSLHALGHGHSCGASLISPNWLVSAAHCYIDTRGSRWSDPTQWTAFLGLHDQSQRSAPGVQERRLKRIISHPFFNKGPLDYDIALLELEKPAEYSSMVRPISLPDASHVFPAGKAIWVTGWGHTQYGGTHALILQKGEIRVINQTTCENLLPQLITPRMMCVGFLSGGVDSCDGDSGGPLSSVEADGRIFQAGVVSWGDGCAQRNKPGVYTRLPLFRDWIKENTGV |
